In patent US20260183373:

Molecular target: Aβ(1-42) (UniProt P05067)

MMP2, sequence (P08253 110-660): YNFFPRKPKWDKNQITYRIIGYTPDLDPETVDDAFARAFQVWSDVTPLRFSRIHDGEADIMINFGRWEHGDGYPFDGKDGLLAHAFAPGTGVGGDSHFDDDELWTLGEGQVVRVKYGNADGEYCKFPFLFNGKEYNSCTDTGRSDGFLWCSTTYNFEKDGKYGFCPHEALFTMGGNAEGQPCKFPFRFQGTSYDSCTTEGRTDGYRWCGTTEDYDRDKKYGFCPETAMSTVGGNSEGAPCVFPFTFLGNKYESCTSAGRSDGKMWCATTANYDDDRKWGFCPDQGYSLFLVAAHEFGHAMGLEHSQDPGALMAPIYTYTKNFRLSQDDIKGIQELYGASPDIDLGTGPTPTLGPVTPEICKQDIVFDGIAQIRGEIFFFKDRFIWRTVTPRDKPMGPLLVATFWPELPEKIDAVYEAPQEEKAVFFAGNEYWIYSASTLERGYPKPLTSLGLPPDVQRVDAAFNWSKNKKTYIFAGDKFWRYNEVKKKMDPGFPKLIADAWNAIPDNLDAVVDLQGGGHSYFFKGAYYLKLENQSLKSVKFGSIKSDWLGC

Row | Substance | stated: cleaves; Aβ cleavage assay, intact Aβ by ELISA (% untreated)
1 | ECE1 | near 100 % up to about 10 nM, falls only to about 60 % at the highest concentration (about 1000 nM), no lower plateau
2 | MMP2 | drifts from about 90 % to about 65 % between 0.01 and 30 nM (no flat upper plateau), about 40 % near 100 nM, about 0 % from about 300 nM
3 | MMP9 | about 80 % up to about 30 nM, about 60 % near 100 nM, about 35 % near 300 nM, below 10 % at the highest concentration (about 1000 nM), no lower plateau
4 | MTSP1 | about 100 % up to about 10 nM, about 70 % near 100 nM, about 47 % near 300 nM, about 20 % at the highest concentration (about 1000 nM), no lower plateau
5 | NEP2 | stays near 90 % up to about 10 nM, about 60 % near 30 nM, about 35 % near 100 nM, about 0 % at the highest concentration (about 1000 nM)

Molecular target: Aβ(1-40) (UniProt P05067)

Row | Substance | stated: cleaves; Aβ cleavage assay, intact Aβ by ELISA (% untreated)
6 | ECE1 | near 100 % up to about 10 nM, falls to about 30 % at the highest concentration (about 1000 nM), no lower plateau
7 | MMP2 | about 105 % up to about 30 nM, about 45 % near 100 nM, about 0 % from about 300 nM
8 | MMP9 | about 100 % up to about 30 nM, about 80 % near 100 nM, about 40 % near 300 nM, about 10 % at the highest concentration (about 1000 nM), no lower plateau
9 | MTSP1 | about 100 % up to about 30 nM, about 70 % near 100 nM, about 35 % near 300 nM, about 13 % at the highest concentration (about 1000 nM), no lower plateau
10 | NEP2 | stays near 100 % up to about 10 nM, about 60 % near 30 nM, about 25 % near 100 nM, about 0 % from about 300 nM
